This passage reports stoichiometry of inhibition (SI) from residual chymotrypsin activity results from PMC3394726.

For this experiment, the target named is chymotrypsin (bovine).

On to “scabies mite serpin SMSB3, wild type (from UniProt A0A131ZZL5 20-427) (natural protein)”, for which the stoichiometry of inhibition (SI) from residual chymotrypsin activity at a 2-120:1 molar excess of SMSB3 came out at 12.9.
